± gives the standard deviation of the averaged measurements.
Assay: total protein half-life in vivo (active degradation + dilution); higher = more stable protein
[1] = wild type E. coli NCM3722, growth: C-lim chemostat, doubling time 3 h
[2] = wild type E. coli NCM3722, growth: C-lim chemostat, doubling time 6 h
[3] = E. coli NCM3722 delta-clpP, growth: N-lim chemostat, doubling time 6 h
[4] = E. coli NCM3722 delta-lon, growth: N-lim chemostat, doubling time 6 h
[5] = E. coli NCM3722 delta-smpB, growth: N-lim chemostat, doubling time 6 h
[6] = wild type E. coli NCM3722, growth: C-lim chemostat, doubling time 12 h
[7] = wild type E. coli NCM3722, growth: N-lim chemostat, doubling time 6 h
[8] = wild type E. coli NCM3722, growth: N-lim chemostat, doubling time 12 h
[9] = wild type E. coli NCM3722, growth: P-lim chemostat, doubling time 6 h
[10] = E. coli NCM3722 delta-clpP delta-lon delta-hslV, growth: N-lim chemostat, doubling time 6 h
[11] = E. coli NCM3722 delta-hslV, growth: N-lim chemostat, doubling time 6 h
[12] = wild type E. coli NCM3722, growth: P-lim chemostat, doubling time 12 h

Sequence	total protein half-life in vivo [1] [h]	total protein half-life in vivo [2] [h]	total protein half-life in vivo [3] [h]	total protein half-life in vivo [4] [h]	total protein half-life in vivo [5] [h]	total protein half-life in vivo [6] [h]	total protein half-life in vivo [7] [h]	total protein half-life in vivo [8] [h]	total protein half-life in vivo [9] [h]	total protein half-life in vivo [10] [h]	total protein half-life in vivo [11] [h]	total protein half-life in vivo [12] [h]
MKELVVVAIGGNSIIKDNASQSIEHQAEAVKAVADTVLEMLASDYDIVLTHGNGPQVGLDLRRAEIAHKREGLPLTPLANCVADTQGGIGYLIQQALNNRLARHGEKKAVTVVTQVEVDKNDPGFAHPTKPIGAFFSDSQRDELQKANPDWCFVEDAGRGYRRVVASPEPKRIVEAPAIKALIQQGFVVIGAGGGGIPVVRTDAGDYQSVDAVIDKDLSTALLAREIHADILVITTGVEKVCIHFGKPQQQALDRVDIATMTRYMQEGHFPPGSMLPKIIASLTFLEQGGKEVIITTPECLPAALRGETGTHIIKT	2.78 ± 1.3	5.03										
MKENNLNRVIGWSGLLLTSLLSTSALADNIGTSAEELGLSDYRHFVIYPRLDKALKAQKNNDEATAIREFEYIHQQVPDNIPLTLYLAEAYRHFGHDDRARLLLEDQLKRHPGDARLERSLAAIPVEVKSVTTVEELLAQQKACDAAPTLRCRSEVGQNALRLAQLPVARAQLNDATFAASPEGKTLRTDLLQRAIYLKQWSQADTLYNEARQQNTLSAAERRQWFDVLLAGQLDDRILALQSQGIFTDPQSYITYATALAYRGEKARLQHYLIENKPLFTTDAQEKSWLYLLSKYSANPVQALANYTVQFADNRQYVVGATLPVLLKEGQYDAAQKLLATLPANEMLEERYAVSVATRNKAEALRLARLLYQQEPANLTRLDQLTWQLMQNEQSREAADLLLQRYPFQGDARVSQTLMARLASLLESHPYLATPAKVAILSKPLPLAEQRQWQSQLPGIADNCPAIVRLLGDMSPSYDAAAWNRLAKCYRDTLPGVALYAWLQAEQRQPSAWQHRAVAYQAYQVEDYATALAAWQKISLHDMSNEDLLAAANTAQAAGNGAARDRWLQQAEKRGLGSNALYWWLHAQRYIPGQPELALNDLTRSINIAPSANAYVARATIYRQRHNVPAAVSDLRAALELEPNNSNTQAALGYALWDSGDIAQSREMLEPAHKGLPDDPALIRQLAYVNQRLDDMPATQHYARLVIDDIDNQALITPLTPEQNQQRFNFRRLHEEVGRRWTFSFDSSIGLRSGAMSTANNNVGGAAPGKSYRSYGQLEAEYRIGRNMLLEGDLLSVYSRVFADTGENGVMMPVKNPMSGTGLRWKPLRDQIFFIAVEQQLPLNGQNGASDTMLRASASFFNGGKYSDEWHPNGSGWFAQNLYLDAAQYIRQDIQAWTADYRVSWHQKVANGQTIEPYAHVQDNGYRDKGTQGAQLGGVGVRWNIWTGETHYDAWPHKVSLGVEYQHTFKAINQRNGERNNAFLTIGVHW		6.45 ± 0.45	6.61 ± 0.31	6.08 ± 0.15	5.92 ± 0.22	11.31 ± 0.082	6.193 ± 0.047	12.7 ± 1	5.88 ± 0.08			
MKEVEKNEIKRLSDRLDAIRHQQADLSLVEAADKYAELEKEKATLEAEIARLREVHSQKLSKEAQKLMKMPFQRAITKKEQADMGKLKKSVRGLVVVHPMTALGREMGLQEMTGFSKTAF [P0ADK8]		> 8	4.37 ± 0.35	5.34 ± 1.4	4.26 ± 0.64	9.91 ± 3.4	3.91 ± 0.96	6.76 ± 1.6	3.5 ± 0.53	6.16 ± 1.2	4.65 ± 0.78	6.29 ± 0.48
MKFFALFIYRPVATILLSVAITLCGILGFRMLPVAPLPQVDFPVIIVSASLPGASPETMASSVATPLERSLGRIAGVSEMTSSSSLGSTRIILQFDFDRDINGAARDVQAAINAAQSLLPSGMPSRPTYRKANPSDAPIMILTLTSDTYSQGELYDFASTQLAPTISQIDGVGDVDVGGSSLPAVRVGLNPQALFNQGVSLDDVRTAVSNANVRKPQGALEDGTHRWQIQTNDELKTAAEYQPLIIHYNNGGAVRLGDVATVTDSVQDVRNAGMTNAKPAILLMIRKLPEANIIQTVDSIRAKLPELQETIPAAIDLQIAQDRSPTIRASLEEVEQTLIISVALVILVVFLFLRSGRATIIPAVSVPVSLIGTFAAMYLCGFSLNNLSLMALTIATGFVVDDAIVVLENIARHLEAGMKPLQAALQGTREVGFTVLSMSLSLVAVFLPLLLMGGLPGRLLREFAVTLSVAIGISLLVSLTLTPMMCGWMLKASKPREQKRLRGFGRMLVALQQGYGKSLKWVLNHTRLVGVVLLGTIALNIWLYISIPKTFFPEQDTGVLMGGIQADQSISFQAMRGKLQDFMKIIRDDPAVDNVTGFTGGSRVNSGMMFITLKPRDERSETAQQIIDRLRVKLAKEPGANLFLMAVQDIRVGGRQSNASYQYTLLSDDLAALREWEPKIRKKLATLPELADVNSDQQDNGAEMNLVYDRDTMARLGIDVQAANSLLNNAFGQRQISTIYQPMNQYKVVMEVDPRYTQDISALEKMFVINNEGKAIPLSYFAKWQPANAPLSVNHQGLSAASTISFNLPTGKSLSDASAAIDRAMTQLGVPSTVRGSFAGTAQVFQETMNSQVILIIAAIATVYIVLGILYESYVHPLTILSTLPSAGVGALLALELFNAPFSLIALIGIMLLIGIVKKNAIMMVDFALEAQRHGNLTPQEAIFQACLLRFRPIMMTTLAALFGALPLVLSGGDGSELRQPLGITIVGGLVMSQLLTLYTTPVVYLFFDRLRLRFSRKPKQTVTE	3.64 ± 0.29	6.08 ± 1	6.49 ± 0.36	7.42 ± 0.68	5.44 ± 0.14	14.4 ± 0.89	5.78 ± 0.89	13.8 ± 0.8	6.3 ± 0.2	6.8 ± 0.5	5.92 ± 0.38	12.2 ± 0.66
MKFQAIVLASFLVMPYALADDQGGLKQDAAPPPPHAIEDGYRGTDDAKKMTVDFAKTMHDGASVSLRGNLISHKGEDRYVFRDKSGEINVVIPAAVFDGREVQPDQMINISGSLDKKSAPAVVRVTHLQK	3.02 ± 0.51	5.22 ± 0.22	3.77 ± 0.45			6.52 ± 1.8	5.18 ± 0.37	8.94 ± 0.26	4.33 ± 0.9	3.34 ± 0.2	5.37 ± 0.2	7.82 ± 2.9
MKFRLGGFEAIKSAYMAQVQYSMWVTRKDAWYFANYDPRMKREGLHYVVIERNEKYMASFDEMVPEFIEKMDEALAEIGFVFGEQWR			2.75									
MKFSELWLREWVNPAIDSDALANQITMAGLEVDGVEPVAGSFHGVVVGEVVECAQHPNADKLRVTKVNVGGDRLLDIVCGAPNCRQGLRVAVATIGAVLPGDFKIKAAKLRGEPSEGMLCSFSELGISDDHSGIIELPADAPIGTDIREYLKLDDNTIEISVTPNRADCLGIIGVARDVAVLNQLPLVQPEIVPVGATIDDTLPITVEAPEACPRYLGRVVKGINVKAPTPLWMKEKLRRCGIRSIDAVVDVTNYVLLELGQPMHAFDKDRIEGGIVVRMAKEGETLVLLDGTEAKLNADTLVIADHNKALAMGGIFGGEHSGVNDETQNVLLECAFFSPLSITGRARRHGLHTDASHRYERGVDPALQHKAMERATRLLIDICGGEAGPVIDITNEATLPKRATITLRRSKLDRLIGHHIADEQVTDILRRLGCEVTEGKDEWQAVAPSWRFDMEIEEDLVEEVARVYGYNNIPDEPVQASLIMGTHREADLSLKRVKTLLNDKGYQEVITYSFVDPKVQQMIHPGVEALLLPSPISVEMSAMRLSLWTGLLATVVYNQNRQQNRVRIFESGLRFVPDTQAPLGIRQDLMLAGVICGNRYEEHWNLAKETVDFYDLKGDLESVLDLTGKLNEVEFRAEANPALHPGQSAAIYLKGERIGFVGVVHPELERKLDLNGRTLVFELEWNKLADRVVPQAREISRFPANRRDIAVVVAENVPAADILSECKKVGVNQVVGVNLFDVYRGKGVAEGYKSLAISLILQDTSRTLEEEEIAATVAKCVEALKERFQASLRD	3.37 ± 0.066	6.34 ± 0.37	5.88 ± 0.61	5.98 ± 0.44	5.33 ± 0.063	12.5 ± 0.56	5.41 ± 0.088	10.4 ± 0.24	6.01 ± 0.4	6.244 ± 0.025	5.77 ± 0.16	12 ± 0.58
MKFVDEASILVVAGDGGNGCVSFRREKYIPKGGPDGGDGGDGGDVWMEADENLNTLIDYRFEKSFRAERGQNGASRDCTGKRGKDVTIKVPVGTRVIDQGTGETMGDMTKHGQRLLVAKGGWHGLGNTRFKSSVNRTPRQKTNGTPGDKRELLLELMLLADVGMLGMPNAGKSTFIRAVSAAKPKVADYPFTTLVPSLGVVRMDNEKSFVVADIPGLIEGAAEGAGLGIRFLKHLERCRVLLHLIDIDPIDGTDPVENARIIISELEKYSQDLATKPRWLVFNKIDLLDKVEAEEKAKAIAEALGWEDKYYLISAASGLGVKDLCWDVMTFIIENPVVQAEEAKQPEKVEFMWDDYHRQQLEEIAEEDDEDWDDDWDEDDEEGVEFIYKR	2.27 ± 0.1	3.58 ± 0.14	4.17 ± 0.15	2.44 ± 0.097	2.185 ± 0.021	5.35 ± 0.73	2.39 ± 0.11	2.82 ± 0.035	3.04 ± 0.22	5.72 ± 1.1	2.39 ± 0.18	5.89 ± 0.39
MKGLNKITCCLLAALLMPCAGHAENEQYGANFNNADIRQFVEIVGQHLGKTILIDPSVQGTISVRSNDTFSQQEYYQFFLSILDLYGYSVITLDNGFLKVVRSANVKTSPGMIADSSRPGVGDELVTRIVPLENVPARDLAPLLRQMMDAGSVGNVVHYEPSNVLILTGRASTINKLIEVIKRVDVIGTEKQQIIHLEYASAEDLAEILNQLISESHGKSQMPALLSAKIVADKRTNSLIISGPEKARQRITSLLKSLDVEESEEGNTRVYYLKYAKATNLVEVLTGVSEKLKDEKGNARKPSSSGAMDNVAITADEQTNSLVITADQSVQEKLATVIARLDIRRAQVLVEAIIVEVQDGNGLNLGVQWANKNVGAQQFTNTGLPIFNAAQGVADYKKNGGITSANPAWDMFSAYNGMAAGFFNGDWGVLLTALASNNKNDILATPSIVTLDNKLASFNVGQDVPVLSGSQTTSGDNVFNTVERKTVGTKLKVTPQVNEGDAVLLEIEQEVSSVDSSSNSTLGPTFNTRTIQNAVLVKTGETVVLGGLLDDFSKEQVSKVPLLGDIPLVGQLFRYTSTERAKRNLMVFIRPTIIRDDDVYRSLSKEKYTRYRQEQQQRIDGKSKALVGSEDLPVLDENTFNSHAPAPSSR	2.2				1.92 ± 0.044					2.53		
MKHELSSMKAFVILAESSSFNNAAKLLNITQPALTRRIKKMEEDLHVQLFERTTRKVTLTKAGKRLLPEARELIKKFDETLFNIRDMNAYHRGMVTLACIPTAVFYFLPLAIGKFNELYPNIKVRILEQGTNNCMESVLCNESDFGINMNNVTNSSIDFTPLVNEPFVLACRRDHPLAKKQLVEWQELVGYKMIGVRSSSGNRLLIEQQLADKPWKLDWFYEVRHLSTSLGLVEAGLGISALPGLAMPHAPYSSIIGIPLVEPVIRRTLGIIRRKDAVLSPAAERFFALLINLWTDDKDNLWTNIVERQRHALQEIG										3.61		
MKHLHRFFSSDASGGIILIIAAILAMIMANSGATSGWYHDFLETPVQLRVGSLEINKNMLLWINDALMAVFFLLVGLEVKRELMQGSLASLRQAAFPVIAAIGGMIVPALLYLAFNYADPITREGWAIPAATDIAFALGVLALLGSRVPLALKIFLMALAIIDDLGAIIIIALFYTNDLSMASLGVAAVAIAVLAVLNLCGARRTGVYILVGVVLWTAVLKSGVHATLAGVIVGFFIPLKEKHGRSPAKRLEHVLHPWVAYLILPLFAFANAGVSLQGVTLDGLTSILPLGIIAGLLIGKPLGISLFCWLALRLKLAHLPEGTTYQQIMVVGILCGIGFTMSIFIASLAFGSVDPELINWAKLGILVGSISSAVIGYSWLRVRLRPSV	3.69	5.22 ± 1.9	6.24 ± 0.42	5.75 ± 0.5	6.42 ± 0.43	12	5.7 ± 0.59	11.7 ± 0.19	5.867 ± 0.035	6.65	5.55 ± 0.066	10.6 ± 2
